Results: patent US10941182 (Amgen, dated 2021)
Starred links: 1 amine or outer side, 2 acyl side, 3 side chain; linkers in the order of their positions; H or OH if unused. Non-standard residues stand in square brackets, D forms with d. rCha = cyclohexylalanine with ψ(CH2NH) reduced amide bond, C1CCC(C[C@@H](C[*:2])N[*:1])CC1; rhArg = homoarginine with ψ(CH2NH) reduced amide bond, N=C(N)NCCCC[C@@H](C[*:2])N[*:1]; rHis = histidine with ψ(CH2NH) reduced amide bond, c1nc(C[C@@H](C[*:2])N[*:1])c[nH]1; rLys = lysine with ψ(CH2NH) reduced amide bond, C(CC[C@@H](C[*:2])N[*:1])CN[*:3]; DrSer = D-serine with ψ(CH2NH) reduced amide bond, C(O[*:3])[C@H](C[*:2])N[*:1]; rSer = serine with ψ(CH2NH) reduced amide bond, C(O[*:3])[C@@H](C[*:2])N[*:1]; dBip = N[C@H](Cc1ccc(-c2ccccc2)cc1)C(=O)O; Oic = O=C(O)[C@@H]1C[C@@H]2CCCC[C@@H]2N1; Phe(4-Cl) = N[C@@H](Cc1ccc(Cl)cc1)C(=O)O; dPhe(4-Cl) = N[C@H](Cc1ccc(Cl)cc1)C(=O)O; Phe(4-I) = N[C@@H](Cc1ccc(I)cc1)C(=O)O; 2Nal = N[C@@H](Cc1ccc2ccccc2c1)C(=O)O; d1Nal = N[C@H](Cc1cccc2ccccc12)C(=O)O; NMeR = CN[C@@H](CCCNC(=N)N)C(=O)O; hArg = N=C(N)NCCCC[C@H](N)C(=O)O; Cha = N[C@@H](CC1CCCCC1)C(=O)O; NMeL = CN[C@@H](CC(C)C)C(=O)O; αMeOrn = C[C@](N)(CCCN)C(=O)O; αMeP = C[C@@]1(C(=O)O)CCCN1; αMeS = C[C@](N)(CO)C(=O)O; Nle = CCCC[C@H](N)C(=O)O; Orn = NCCC[C@H](N)C(=O)O

T1: human APJ receptor (human, UniProt P35414 1-380)
T1 sequence (looked up): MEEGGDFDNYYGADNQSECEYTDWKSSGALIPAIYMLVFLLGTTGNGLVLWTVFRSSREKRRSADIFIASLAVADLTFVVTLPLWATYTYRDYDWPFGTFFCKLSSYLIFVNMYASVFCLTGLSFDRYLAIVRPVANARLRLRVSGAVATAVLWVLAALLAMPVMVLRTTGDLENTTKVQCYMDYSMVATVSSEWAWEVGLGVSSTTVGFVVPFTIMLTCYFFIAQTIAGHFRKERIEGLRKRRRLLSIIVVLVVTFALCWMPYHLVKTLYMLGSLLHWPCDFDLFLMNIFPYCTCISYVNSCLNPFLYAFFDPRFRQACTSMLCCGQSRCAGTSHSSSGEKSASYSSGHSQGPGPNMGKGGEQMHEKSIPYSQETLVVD

T2: rat APJ receptor (rat, UniProt Q9JHG3 1-377)
T2 sequence (looked up): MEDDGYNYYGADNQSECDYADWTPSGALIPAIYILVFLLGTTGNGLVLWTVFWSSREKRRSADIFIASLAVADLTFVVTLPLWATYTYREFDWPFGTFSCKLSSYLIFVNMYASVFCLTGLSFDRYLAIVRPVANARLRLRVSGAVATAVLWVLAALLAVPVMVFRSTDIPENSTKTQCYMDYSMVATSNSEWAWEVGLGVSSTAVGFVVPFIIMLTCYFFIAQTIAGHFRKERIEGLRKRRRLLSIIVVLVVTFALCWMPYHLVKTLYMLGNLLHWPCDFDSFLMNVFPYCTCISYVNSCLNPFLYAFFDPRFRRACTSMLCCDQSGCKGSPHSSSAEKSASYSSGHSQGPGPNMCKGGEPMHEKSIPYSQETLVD


How the values were obtained:
human APJ receptor = molecular target: T1, human APJ receptor; experiment: cell-based or functional assay
rat APJ receptor = molecular target: T2, rat APJ receptor; experiment: cell-based or functional assay

EC50 Human APJ Receptor (human APJ receptor) [nM]	EC50 Rat APJ Receptor (rat APJ receptor) [nM]	Binder
0.159	0.291	Ac-[Orn]F[hArg][hArg]QRP[hArg][Cha]SHKGP[Nle][2Nal]-OH (SMILES CCCC[C@H](NC(=O)[C@@H]1CCCN1C(=O)CNC(=O)[C@H](CCCCN)NC(=O)[C@H](Cc1c[nH]cn1)NC(=O)[C@H](CO)NC(=O)[C@H](CC1CCCCC1)NC(=O)[C@H](CCCCNC(=N)N)NC(=O)[C@@H]1CCCN1C(=O)[C@H](CCCNC(=N)N)NC(=O)[C@H](CCC(N)=O)NC(=O)[C@H](CCCCNC(=N)N)NC(=O)[C@H](CCCCNC(=N)N)NC(=O)[C@H](Cc1ccccc1)NC(=O)[C@H](CCCN)NC(C)=O)C(=O)N[C@@H](Cc1ccc2ccccc2c1)C(=O)O) [apelin polypeptide SEQ ID NO: 49]
30.1	312	Ac-Q[dR]P[NMeR][Cha]SHKG[Oic][Nle][d1Nal]-OH (SMILES CCCC[C@H](NC(=O)[C@@H]1C[C@@H]2CCCC[C@@H]2N1C(=O)CNC(=O)[C@H](CCCCN)NC(=O)[C@H](Cc1c[nH]cn1)NC(=O)[C@H](CO)NC(=O)[C@H](CC1CCCCC1)NC(=O)[C@H](CCCNC(=N)N)N(C)C(=O)[C@@H]1CCCN1C(=O)[C@@H](CCCNC(=N)N)NC(=O)[C@H](CCC(N)=O)NC(C)=O)C(=O)N[C@H](Cc1cccc2ccccc12)C(=O)O) [apelin polypeptide SEQ ID NO: 54]
0.151	0.817	Ac-[Orn]F[hArg][hArg]Q[hArg]P[hArg][Cha]SH[rLys]G[Oic][Nle]P[Phe(4-Cl)]-OH (also: reduced amide bond (CH2NH) at residue 12) [apelin polypeptide SEQ ID NO: 41]
0.234	1.45	Ac-[Orn]F[hArg][hArg]Q[hArg]P[hArg][Cha]S[rHis]KG[Oic][Nle]P[Phe(4-Cl)]-OH (also: reduced amide bond (CH2NH) at residue 11) [apelin polypeptide SEQ ID NO: 40]
5.18	5.98	QRPRLSHKGXFPX ({Acetyl-NH}Q[hArg]Pr[NMeLeu]SHKG[Oic][pI-Phe]P[D-Bip]{COOH}) [apelin polypeptide SEQ ID NO: 53]
0.393	1.83	Ac-[Orn]F[hArg][hArg]Q[hArg]P[hArg][Cha][rSer]HKG[Oic][Nle]P[Phe(4-Cl)]-OH (also: reduced amide bond at Ser10 (rSer)) [apelin polypeptide SEQ ID NO: 43]
0.0672	0.136	Ac-[Orn]F[hArg][hArg]Q[hArg]P[hArg][Cha]SHKG[Oic][Nle][αMeP][Phe(4-Cl)]-OH [apelin polypeptide SEQ ID NO: 37]
0.0449	0.247	Ac-[Orn]F[hArg][hArg]Q[hArg]P[hArg][rCha]SHKG[Oic][Nle]P[Phe(4-Cl)]-OH (also: reduced amide bond (CH2NH) at residue 9) [apelin polypeptide SEQ ID NO: 42]
0.287	0.486	Ac-[Orn]F[hArg][hArg]QRP[hArg][Cha]SHKGP[Nle][Phe(4-Cl)]-OH (SMILES CCCC[C@H](NC(=O)[C@@H]1CCCN1C(=O)CNC(=O)[C@H](CCCCN)NC(=O)[C@H](Cc1c[nH]cn1)NC(=O)[C@H](CO)NC(=O)[C@H](CC1CCCCC1)NC(=O)[C@H](CCCCNC(=N)N)NC(=O)[C@@H]1CCCN1C(=O)[C@H](CCCNC(=N)N)NC(=O)[C@H](CCC(N)=O)NC(=O)[C@H](CCCCNC(=N)N)NC(=O)[C@H](CCCCNC(=N)N)NC(=O)[C@H](Cc1ccccc1)NC(=O)[C@H](CCCN)NC(C)=O)C(=O)N[C@@H](Cc1ccc(Cl)cc1)C(=O)O) [apelin polypeptide SEQ ID NO: 48]
1.43	1.68	Ac-[dR]Q[hArg]P[dR][NMeL]SHKG[Oic][Phe(4-I)]P[dBip]-OH [apelin polypeptide SEQ ID NO: 50]
0.623	1.14	Ac-[dR]QRP[hArg][NMeL]SHKG[Oic][Phe(4-I)]P[dBip]-OH (SMILES CC(=O)N[C@H](CCCNC(=N)N)C(=O)N[C@@H](CCC(N)=O)C(=O)N[C@@H](CCCNC(=N)N)C(=O)N1CCC[C@H]1C(=O)N[C@@H](CCCCNC(=N)N)C(=O)N(C)[C@@H](CC(C)C)C(=O)N[C@@H](CO)C(=O)N[C@@H](Cc1c[nH]cn1)C(=O)N[C@@H](CCCCN)C(=O)NCC(=O)N1[C@H](C(=O)N[C@@H](Cc2ccc(I)cc2)C(=O)N2CCC[C@H]2C(=O)N[C@H](Cc2ccc(-c3ccccc3)cc2)C(=O)O)C[C@@H]2CCCC[C@@H]21) [apelin polypeptide SEQ ID NO: 52]
0.416	0.63	Ac-[Orn]F[hArg][hArg]QRP[hArg][NMeL]SHKG[Oic][Phe(4-I)]P[dBip]-OH (SMILES CC(=O)N[C@@H](CCCN)C(=O)N[C@@H](Cc1ccccc1)C(=O)N[C@@H](CCCCNC(=N)N)C(=O)N[C@@H](CCCCNC(=N)N)C(=O)N[C@@H](CCC(N)=O)C(=O)N[C@@H](CCCNC(=N)N)C(=O)N1CCC[C@H]1C(=O)N[C@@H](CCCCNC(=N)N)C(=O)N(C)[C@@H](CC(C)C)C(=O)N[C@@H](CO)C(=O)N[C@@H](Cc1c[nH]cn1)C(=O)N[C@@H](CCCCN)C(=O)NCC(=O)N1[C@H](C(=O)N[C@@H](Cc2ccc(I)cc2)C(=O)N2CCC[C@H]2C(=O)N[C@H](Cc2ccc(-c3ccccc3)cc2)C(=O)O)C[C@@H]2CCCC[C@@H]21) [apelin polypeptide SEQ ID NO: 47]
0.37	1.26	Ac-RQRP[hArg][NMeL]SHKG[Oic][Phe(4-I)]P[dBip]-OH [apelin polypeptide SEQ ID NO: 51]
0.0869	1.3	Ac-[Orn]F[hArg][hArg]Q[rhArg]P[hArg][Cha]SHKG[Oic][Nle]P[Phe(4-Cl)]-OH (also: reduced amide bond (CH2NH) at residue 6) [apelin polypeptide SEQ ID NO: 38]
0.253	0.323	Ac-[Orn]F[hArg][hArg]Q[hArg]P[rhArg][Cha]SHKG[Oic][Nle]P[Phe(4-Cl)]-OH (also: reduced amide bond (CH2NH) at residue 8) [apelin polypeptide SEQ ID NO: 39]
0.0861	0.185	Ac-[Orn]F[hArg][hArg]Q[hArg]P[hArg][Cha][αMeS]HKG[Oic][Nle]P[Phe(4-Cl)]-OH [apelin polypeptide SEQ ID NO: 35]
31.6	145	Ac-[dQ][hArg]P[NMeR][Cha]SHKG[Oic][Nle]P[dPhe(4-Cl)]-OH (SMILES CCCC[C@H](NC(=O)[C@@H]1C[C@@H]2CCCC[C@@H]2N1C(=O)CNC(=O)[C@H](CCCCN)NC(=O)[C@H](Cc1c[nH]cn1)NC(=O)[C@H](CO)NC(=O)[C@H](CC1CCCCC1)NC(=O)[C@H](CCCNC(=N)N)N(C)C(=O)[C@@H]1CCCN1C(=O)[C@H](CCCCNC(=N)N)NC(=O)[C@@H](CCC(N)=O)NC(C)=O)C(=O)N1CCC[C@H]1C(=O)N[C@H](Cc1ccc(Cl)cc1)C(=O)O) [apelin polypeptide SEQ ID NO: 55]
0.389	1.04	Ac-[Orn]F[hArg][hArg]QRP[hArg][Cha]SHKGP[Phe(4-I)]P[dBip]-OH (SMILES CC(=O)N[C@@H](CCCN)C(=O)N[C@@H](Cc1ccccc1)C(=O)N[C@@H](CCCCNC(=N)N)C(=O)N[C@@H](CCCCNC(=N)N)C(=O)N[C@@H](CCC(N)=O)C(=O)N[C@@H](CCCNC(=N)N)C(=O)N1CCC[C@H]1C(=O)N[C@@H](CCCCNC(=N)N)C(=O)N[C@@H](CC1CCCCC1)C(=O)N[C@@H](CO)C(=O)N[C@@H](Cc1c[nH]cn1)C(=O)N[C@@H](CCCCN)C(=O)NCC(=O)N1CCC[C@H]1C(=O)N[C@@H](Cc1ccc(I)cc1)C(=O)N1CCC[C@H]1C(=O)N[C@H](Cc1ccc(-c2ccccc2)cc1)C(=O)O) [apelin polypeptide SEQ ID NO: 46]
0.997	3.79	Ac-[Orn]F[hArg][hArg]Q[hArg]P[hArg][Cha][DrSer]HKG[Oic][Nle]P[Phe(4-Cl)]-OH (also: reduced amide bond at D-Ser10 (DrSer)) [apelin polypeptide SEQ ID NO: 44]
0.355	1.94	Ac-[Orn]F[hArg][hArg]Q[hArg]P[hArg][Cha]SH[αMeOrn]G[Oic][Nle]P[Phe(4-Cl)]-OH [apelin polypeptide SEQ ID NO: 36]
